Earlier results in article PMC6162179.

Tests used:
[1] = biological target: gp5 DNA polymerase (Escherichia phage T7) (UniProt P00581)
[2] = biological target: Thioredoxin (Escherichia coli) [thioredoxin: P0AA25]
Chain of Thioredoxin (Escherichia coli) [thioredoxin: P0AA25] (P0AA25 2-109): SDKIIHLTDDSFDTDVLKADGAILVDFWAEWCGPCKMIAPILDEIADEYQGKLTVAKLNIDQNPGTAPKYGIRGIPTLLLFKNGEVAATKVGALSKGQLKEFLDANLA

Chain of gp2.5 (P03696 whole entry): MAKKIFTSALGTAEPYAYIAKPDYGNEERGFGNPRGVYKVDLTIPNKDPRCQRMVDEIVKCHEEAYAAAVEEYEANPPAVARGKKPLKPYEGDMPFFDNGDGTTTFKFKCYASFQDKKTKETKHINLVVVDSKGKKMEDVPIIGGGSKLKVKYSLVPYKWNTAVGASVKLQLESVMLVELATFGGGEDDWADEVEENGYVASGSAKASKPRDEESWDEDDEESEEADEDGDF
Chain of gp5 DNA polymerase (Escherichia phage T7) (P00581 whole entry): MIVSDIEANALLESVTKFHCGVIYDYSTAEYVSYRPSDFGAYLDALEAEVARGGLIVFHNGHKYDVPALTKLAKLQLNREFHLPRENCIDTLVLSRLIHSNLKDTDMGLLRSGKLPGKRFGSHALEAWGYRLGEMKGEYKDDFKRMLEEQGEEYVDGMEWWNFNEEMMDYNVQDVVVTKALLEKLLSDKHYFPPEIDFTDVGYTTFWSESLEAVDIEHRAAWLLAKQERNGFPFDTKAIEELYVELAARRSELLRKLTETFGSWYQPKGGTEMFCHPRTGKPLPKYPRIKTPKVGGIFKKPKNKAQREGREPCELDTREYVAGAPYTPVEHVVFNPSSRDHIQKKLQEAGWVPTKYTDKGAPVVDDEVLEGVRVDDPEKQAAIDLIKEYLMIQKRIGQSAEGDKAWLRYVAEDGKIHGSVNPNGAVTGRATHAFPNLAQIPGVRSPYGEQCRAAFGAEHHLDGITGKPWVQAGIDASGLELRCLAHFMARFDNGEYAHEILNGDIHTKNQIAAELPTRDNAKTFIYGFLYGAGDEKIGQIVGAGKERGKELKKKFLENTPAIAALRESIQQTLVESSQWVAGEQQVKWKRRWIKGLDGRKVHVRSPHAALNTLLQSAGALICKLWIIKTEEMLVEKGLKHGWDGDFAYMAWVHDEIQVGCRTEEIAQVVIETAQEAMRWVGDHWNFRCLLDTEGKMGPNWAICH

Substance: gp2.5 (from UniProt P03696)
- Kd [1]: 1 µM
- Kd [2]: 500 µM
